Holding throughout (experiment): cell_activity
The test system of data set [1] is I-ScaI I250N I250N. Conditions: three site copies in pBar2, E. coli.
Data set [2] has as its system I-ScaI. Conditions: three site copies in pBar2, E. coli.
Data set [3] relates to I-ScaI D90S D90S. Conditions: catalytically inactive, background; binding not tested.

From patent publication US7476500 come the findings set out here.

Consider “TGAGGTGCACTAGTTA (double strand) [I-ScaI site]”, for which the activity is 27 % survival in data set [1], 65 % survival in data set [2] and 18 % survival in data set [3].
